The text below walks through data of article PMC2657470 (Biochemical and biophysical research communications, 2009).

Series [1] addresses T1, Phos15739 (Drosophila melanogaster, UniProt Q9VYT0). It counts as biochemical, D. melanogaster. The settings on record: for substrate quality for Phos15739 (in words): isoprenoid mono- and pyrophosphate substrates.
Series [2] has as its target T1, Phos15739. As to the kind of experiment: In vitro inhibition of Phos15739, p-NPP as substrate. Particulars: for inhibitor quality for Phos15739 (in words): p-NPP as substrate.
The next series has as its target Phos2680 (Drosophila melanogaster, UniProt Q9W4W5). As to the kind of experiment: In vitro inhibition of Phos2680, p-NPP as substrate.
Series [3] addresses hsEH N-terminal phosphatase. Particulars: cited from earlier work.
A further series relates to Phos15739D28A. Kind of series: Enzymatic activity of variant Phos15739D28A with p-NPP and FPP. Type of series: biochemical, D. melanogaster. The settings on record: same reaction conditions as positive control Phos15739; data not shown.
The subject of series [4] is N-terminal domain of hsEH. Particulars: FPP as substrate of N-terminal domain of hsEH; ref [8]; cited from earlier work.
Substrate in series [5]: O=[N+]([O-])c1ccc(OP(=O)(O)O)cc1
Kind of series: p-NPP phosphatase activity of Phos15739. Type of series: biochemical, D. melanogaster. Particulars: other: p-NPP as substrate of Phos15739, pH 6.0, 2 mM Mg2+.

Substrate in series [6]: C=C(C)CCOP(=O)(O)O
Kind of series: purified protein, by the assay type.

Substrate in series [7]: CC(C)=CCC/C(C)=C/CC/C(C)=C/CO[P@@](=O)(O)OP(=O)(O)O
As to the kind of experiment: purified protein, by the assay type. Particulars: other: substrate of Phos15739; IPP, GPP, FPP values are apparent kinetics.

Substrate in series [8]: CC(C)=CCC/C(C)=C/CC/C(C)=C/COP(=O)(O)O
As to the kind of experiment: purified protein, by the assay type. Particulars: other: substrate of Phos15739; IPP, GPP, FPP values are apparent kinetics. Type of series: biochemical, D. melanogaster.

Substrate in series [9]: CC(C)=CCC/C(C)=C/COP(=O)(O)O
Kind of series: purified protein, by the assay type. It counts as biochemical, D. melanogaster. The settings on record: other: substrate of Phos15739; IPP, GPP, FPP values are apparent kinetics.

Substrate in series [10]: C=C(C)CCO[P@@](=O)(O)OP(=O)(O)O
As to the kind of experiment: purified protein, by the assay type. The settings on record: other: substrate of Phos15739; IPP, GPP, FPP values are apparent kinetics. Type of series: biochemical, D. melanogaster.

Substrate in series [11]: O=[N+]([O-])c1ccc(OP(=O)(O)O)cc1
As to the kind of experiment: p-NPP phosphatase activity of Phos2680. Type of series: biochemical, D. melanogaster. The settings on record: other: p-NPP as substrate of Phos2680, pH 6.0, 2 mM Mg2+.

The mark [12] stands for this setting: substrate of Phos15739, IPP, GPP, FPP values are apparent kinetics.
[13] abbreviates: other: substrate of Phos15739, IPP, GPP, FPP values are apparent kinetics.

Like-named read-outs stand apart in the source and are kept apart here.

Turning to `CC(C)=CCC/C(C)=C/COP(=O)(O)OP(=O)(O)O` [GPP], the “substrate quality for Phos15739 (in words)” value (“substrate quality” below) at Phos15739 [1] was “weak substrates”. In addition, at Phos15739 [1] (setting [12]), the “Kcat (s^−1±S.E.)” value worked out at 0.78 ± 0.09 s⁻¹ and the “Vmax (μmol.min^−1mg^−1±S.E.)” value was 1.4 ± 1.5 µmol/min/mg.
Consider `CC(C)=CCC/C(C)=C/CC/C(C)=C/CC/C(C)=C/COP(=O)(O)O` [GGMP], for which the “substrate quality” value at Phos15739 [1] is listed as “not good substrates”.
Broadly, the IC50 is the point on the concentration scale where inhibition reaches its midpoint. As for `CC(=O)N[C@@H](CSC/C=C(\C)CCC=C(C)C)C(=O)O` [N-acetyl-S-geranyl-L-cysteine], the values for the IC50 against Phos15739 [2] and at Phos2680 were 6.3 ± 1.7 µM and more than 100 µM, respectively.
As for `C=C(C)CCOP(=O)(O)OP(=O)(O)O` [IPP], the “substrate quality” value at Phos15739 [1] is “weak substrates”.
With `CC(C)=CCC/C(C)=C/CC/C(C)=C/CSCC(=O)O` [S-Farnesyl-thioacetic acid], at Phos15739 [2], the IC50 was more than 100 µM and the “inhibitor quality for Phos15739 (in words)” value is recorded as “poor inhibitors”. Besides, the IC50 on Phos2680 worked out at 5.1 ± 1.4 µM.
With `CC(=O)N[C@@H](CSC/C=C(\C)CC/C=C(\C)CCC=C(C)C)C(=O)O` [N-acetyl-S-farnesyl-L-cysteine], the IC50 is 28 ± 6.8 µM at Phos15739 [2], more than 100 µM at Phos2680 and 840 nM in series [3] (ref [8]).
Consider `CC(C)=CCC/C(C)=C/CC/C(C)=C/COP(=O)(O)OP(=O)(O)O` [FPP, farnesyl pyrophosphate], for which, in the series on Phos15739D28A, the “enzymatic activity of Phos15739D28A with substrate” value is “No activity was detected”. Besides, in series [4], the turnover number is 0.25 ± 0.07 s⁻¹.
With `C[C@H](CCC(=O)NCCS(=O)(=O)O)[C@H]1CC[C@H]2[C@@H]3CC[C@@H]4C[C@H](OS(=O)(=O)O)CC[C@]4(C)[C@H]3CC[C@]12C` [Taurolithocholic acid 3-sulfate, taurolithocholic acid 3-sulfate], the results for the IC50 (at Phos15739 [2]; at Phos2680; in series [3] (ref [12])) were more than 100 µM, more than 100 µM and 5000 nM, respectively. For the same molecule, the “inhibitor quality for Phos15739 (in words)” value at Phos15739 [2] is “poor inhibitors”.
On to `CC(=O)N[C@@H](CSC/C=C(\C)CC/C=C(\C)CC/C=C(\C)CCC=C(C)C)C(=O)O` [N-acetyl-S-geranylgeranyl-L-cysteine], for which the IC50 came out at 4.4 ± 2 µM on Phos15739 [2] and 14 ± 1.9 µM on Phos2680.
With `O=[N+]([O-])c1ccc(OP(=O)(O)O)cc1` [p-NPP, para-nitrophenyl phosphate], the “enzymatic activity of Phos15739D28A with substrate” value with Phos15739D28A is “No activity was detected”.
`CC(C)=CCC/C(C)=C/CC/C(C)=C/CC/C(C)=C/COP(=O)(O)OP(=O)(O)O` [GGPP, Geranylgeranyl pyrophosphate]: the “substrate quality” value at Phos15739 [1] is “not good substrates”.

B1: Phos15739 (Drosophila melanogaster) (protein)
chain: MAKPQHILQLSQEQRSSVVDSFDRVVSDIDGVLWTFEQSIPRAADGYAALEQMGKHLTFLTNNSVRTSEQCVKLFAKIGMQVHPEQIWHPAKSIVSYLQSIKFEGLIYIIASQSFKTVLREAGFQLLDGPNEFIEESYASLAEHIFGKEPVRAVIIDVDFNLTSPKILRAHLYLRHPECMLIEGATDRLLPVAKEVNIVGPGAFASILVEASGKQPITLGKPGRELGDLLVEHYQIVQPSRVLMIGDMLAQDVSFGRQCGFQTLLVLSGGCSKEELLAETDPQRIPDYYADSVADVAQMLGEAPKSRV
Usually Km stands for the concentration of substrate that gives half-maximal velocity. One may read the Vmax as the rate approached at saturating substrate. For orientation: kcat means the number of substrate molecules converted per active site and unit of time at saturation. In general, kcat/Km refers to the second-order rate constant that governs catalysis at low substrate concentration. B1: the Km was determined as 240 µM in series [5]; 84 ± 27 µM in series [6] (setting [13]); 48 ± 13 µM in series [7]; 160 ± 20 µM in [8]; 81 ± 6.7 µM in [9]; 430 ± 150 µM in series [10]. The Vmax in [5] is 6.1 µmol/min/mg; in series [6] (setting [13]), 18 ± 2.7 µmol/min/mg; in series [7], 18 ± 1.8 µmol/min/mg; in series [8], 85 ± 4.2 µmol/min/mg; in series [9], 250 ± 9.3 µmol/min/mg; in series [10] it was 2.1 ± 0.39 µmol/min/mg. The kcat in series [6] (setting [13]) came to 10 ± 1.5 s⁻¹; in [7], 10 ± 1.04 s⁻¹; in [8], 49 ± 2.4 s⁻¹; in series [9], 140 ± 5.3 s⁻¹; in series [10], 1.2 ± 0.22 s⁻¹. In addition, the catalytic efficiency (kcat/Km) in series [6] (setting [13]) was 120000 M⁻¹ s⁻¹; in series [7], 2.1 X 10^5 M^−1 s^−1; in series [8], 310000 M⁻¹ s⁻¹; in series [9], 1.8e+06 M⁻¹ s⁻¹; in series [10], 2700 M⁻¹ s⁻¹.

B2: Phos2680 (Drosophila melanogaster) (protein)
chain: MSPPRHILKLSLEEQRQFIDSFDLVISDCDGVVWLLVGWIPNTGAAVNALKAAGKQIKFVSNNSFRSEEDYMEKFRHIGAKNVQEDDIVHPVKTIVRYLKKHKPGERVYSLMSLEANETLRKHNIEFESLQVKEHLTAASLVDHLAIEKPVGAVLFDIHLDLSYVELAKAIRHLQENDDCQLIAGGSDVIMPLAENLNVAGFFDFLEHVKRYTQREATFLGKPSPILGEMFGEMFEIRDCKRCIFIGDTLVQDVQFGKACGFQSLLVLSGCLTKEDMLNAPVEAQPDYYADSLADFTQLLENIQK
Consider B2, for which the Km in [11] was 640 µM; in series [6] (other: substrate of Phos2680) it was 35 µM. Also, the maximal velocity (Vmax) in series [11] came to 36 µmol/min/mg; in [6] (other: substrate of Phos2680), 59 µmol/min/mg.
